Our source for the % Inhibition of adhesion of NIH-3T3 cells to hFn-coated wells (50 ng rhUG), Percent Inhibition of cellular adhesion to fibronectin, Hela cell line (50 ng) and Percent Inhibition of cellular adhesion to fibronectin, NIH-3T3 cell line (50 ng) values is patent publication US20100183640A1.

The target in this assay is purified human fibronectin (hFn), from human plasma (human) (UniProt P02751). Nature of the assay: cell-based or functional assay.

B1: recombinant human uteroglobin (ligand)
chain: EICPSFQRVIETLLMDTPSSYEAAMELFSPDQDMREAGAQLKKLVDTLPQKPRESIIKLMEKIAQSSLCN
B1: the % Inhibition of adhesion of NIH-3T3 cells to hFn-coated wells (50 ng rhUG) came out at 54%; the Percent Inhibition of cellular adhesion to fibronectin, Hela cell line (50 ng) is -5%; the Percent Inhibition of cellular adhesion to fibronectin, NIH-3T3 cell line (50 ng) amounted to 54%.
